Assay results as given in PMC4866720, “A Genetic Screen Identifies a Requirement for Cysteine-Rich–Receptor-Like Kinases in Rice NH1 (OsNPR1)-Mediated Immunity”.

T1: TGA2.1 (Oryza sativa (rice), UniProt Q7X993 1-334)
T1 sequence: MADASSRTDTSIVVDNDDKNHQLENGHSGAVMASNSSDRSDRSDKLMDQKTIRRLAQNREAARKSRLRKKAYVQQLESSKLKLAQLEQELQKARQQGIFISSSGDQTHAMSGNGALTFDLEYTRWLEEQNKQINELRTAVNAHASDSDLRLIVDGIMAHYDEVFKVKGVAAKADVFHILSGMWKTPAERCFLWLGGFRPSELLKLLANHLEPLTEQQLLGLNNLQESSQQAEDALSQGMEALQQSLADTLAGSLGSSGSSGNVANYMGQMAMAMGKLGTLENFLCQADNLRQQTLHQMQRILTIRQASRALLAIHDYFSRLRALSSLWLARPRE

B1: CRK10 promoter TGA site mt competitor (dsDNA)
DNA 1: CTCTTTGTGGTGTTGTTCTTC
DNA 2: GAAGAACAACACCACAAAGAG
B2: CRK10 promoter TGA site wt probe (dsDNA)
DNA 1: CTCTTTGTGACGTTGTTCTTC
DNA 2: GAAGAACAACGTCACAAAGAG

Key:
TGA2.1 [1] = target: T1, TGA2.1; experiment: competition; EMSA competitor 5X, 20X, 100X against biotin-wt probe; EMSA with biotin probe, chemiluminescent detection; buffer, salt, pH and temperature not stated; details: protein: recombinant; chain copies: 2
TGA2.1 [2] = target: T1, TGA2.1; experiment: EMSA; competed by unlabeled wt oligonucleotide (5X, 20X, 100X tested); EMSA with biotin probe, chemiluminescent detection; buffer, salt, pH and temperature not stated; details: protein: recombinant; chain copies: 2; label: 5'-biotin on top strand (probe)

| Binder | binding result (TGA2.1 [1]) | binding result (TGA2.1 [2]) |
| --- | --- | --- |
| B1 | no binding |  |
| B2 |  | binds |
